Experimental data: paper PMC7757244

Target: Mut FcγRIIIa (human) (UniProt P08637)
Experiment: SPR

UniProt P08637, sequence (P08637 17-254): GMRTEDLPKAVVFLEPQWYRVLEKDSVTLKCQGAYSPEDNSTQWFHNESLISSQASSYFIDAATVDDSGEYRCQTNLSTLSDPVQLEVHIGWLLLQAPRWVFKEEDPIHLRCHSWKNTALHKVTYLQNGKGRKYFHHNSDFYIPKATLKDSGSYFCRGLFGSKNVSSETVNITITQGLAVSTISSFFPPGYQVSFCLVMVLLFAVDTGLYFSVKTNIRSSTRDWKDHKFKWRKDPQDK

Kd	koff	kon	Substance
1.95 µM	0.0583 s⁻¹		Expi293-Trastuzumab (antibody)
2.03 µM	0.0803 s⁻¹	39900 M⁻¹ s⁻¹	ExpiCHO-Rituximab (antibody)
2.52 µM	0.0893 s⁻¹	36200 M⁻¹ s⁻¹	ExpiCHO-Trastuzumab (antibody)
1.38 µM	0.0544 s⁻¹	39600 M⁻¹ s⁻¹	Expi293-Rituximab (antibody)
